Experimental findings from publication PMC4967961 are described below.

The target of the data set is HuR full-length (FL-HuR, rHuR) (UniProt Q15717 1-326). Nature of the data set: EMSA; EMSA: 20 mM Tris-HCl pH 7.8, 150 mM KCl, 2 mM MgCl2, 0.1% Triton X-100, 0.5 mM DTT, heparin 5 mg/ml, BSA 1 mg/ml, 10% glycerol, on ice 15 min; 6% native PAGE, 0.
Chain of HuR full-length (FL-HuR, rHuR) (Q15717 whole entry): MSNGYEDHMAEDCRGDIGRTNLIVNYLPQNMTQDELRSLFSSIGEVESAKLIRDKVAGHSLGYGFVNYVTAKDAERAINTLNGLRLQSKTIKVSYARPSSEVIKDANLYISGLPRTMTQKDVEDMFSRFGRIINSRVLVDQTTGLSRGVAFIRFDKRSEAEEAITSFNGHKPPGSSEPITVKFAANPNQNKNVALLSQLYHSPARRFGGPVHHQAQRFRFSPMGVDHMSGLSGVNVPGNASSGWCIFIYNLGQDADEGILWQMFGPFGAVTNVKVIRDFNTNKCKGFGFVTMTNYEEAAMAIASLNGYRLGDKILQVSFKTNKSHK

UGGAGUGUGACAAUGGUGUUUG (ssRNA) [miR-122 (5p)]: the affinity, expressed as Kd, was 50 nM.

As for AUUAUUUAUUAUUUAUUUAUUAUUUAUUUAUUUA (ssRNA) [TNF-alpha 3'UTR ARE RNA], the binding result is “binds”.
